Data as given in patent US20200277377A1 (WUXI BIOLOGICS SHANGHAI, published 2020).

T1: hCTLA4_ECD.His point mutant K65 to alanine (human, UniProt P16410 36-161)
T1 construct: extracellular domain; alanine-scan mutein, HEK293F supernatant
T1 sequence (looked up): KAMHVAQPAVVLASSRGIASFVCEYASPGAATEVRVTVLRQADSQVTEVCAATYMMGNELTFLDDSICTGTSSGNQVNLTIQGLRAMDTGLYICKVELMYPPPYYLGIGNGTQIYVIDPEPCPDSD

T2: hCTLA4_ECD.His point mutant G142 to alanine (human, UniProt P16410 36-161)
T2 construct: extracellular domain; alanine-scan mutein, HEK293F supernatant
T2 sequence (looked up): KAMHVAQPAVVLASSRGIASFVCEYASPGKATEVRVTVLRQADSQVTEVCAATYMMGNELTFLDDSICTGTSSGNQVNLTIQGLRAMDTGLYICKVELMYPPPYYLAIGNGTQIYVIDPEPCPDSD

T3: hCTLA4_ECD.His point mutant L141 to alanine (human, UniProt P16410 36-161)
T3 construct: extracellular domain; alanine-scan mutein, HEK293F supernatant
T3 sequence (looked up): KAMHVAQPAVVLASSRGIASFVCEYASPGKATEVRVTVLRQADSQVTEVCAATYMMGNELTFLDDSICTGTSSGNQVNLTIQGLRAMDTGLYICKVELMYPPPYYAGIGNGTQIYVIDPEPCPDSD

T4: hCTLA4_ECD.His point mutant Y139 to alanine (human, UniProt P16410 36-161)
T4 construct: extracellular domain; alanine-scan mutein, HEK293F supernatant
T4 sequence (looked up): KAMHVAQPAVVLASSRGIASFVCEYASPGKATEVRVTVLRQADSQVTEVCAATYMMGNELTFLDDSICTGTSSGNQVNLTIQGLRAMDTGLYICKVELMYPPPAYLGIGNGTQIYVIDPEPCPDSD

T5: hCTLA4_ECD.His point mutant C103 to alanine (human, UniProt P16410 36-161)
T5 construct: extracellular domain; alanine-scan mutein, HEK293F supernatant
T5 sequence (looked up): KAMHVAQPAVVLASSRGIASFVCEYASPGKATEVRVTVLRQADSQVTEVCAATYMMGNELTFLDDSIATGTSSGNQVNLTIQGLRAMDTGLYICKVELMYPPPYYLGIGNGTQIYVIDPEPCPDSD

T6: hCTLA4_ECD.His point mutant V131 to alanine (human, UniProt P16410 36-161)
T6 construct: extracellular domain; alanine-scan mutein, HEK293F supernatant
T6 sequence (looked up): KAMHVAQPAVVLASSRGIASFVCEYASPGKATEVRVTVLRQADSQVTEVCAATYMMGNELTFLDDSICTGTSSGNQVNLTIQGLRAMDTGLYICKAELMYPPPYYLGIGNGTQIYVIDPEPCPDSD

T7: hCTLA4_ECD.His point mutant Q76 to alanine (human, UniProt P16410 36-161)
T7 construct: extracellular domain; alanine-scan mutein, HEK293F supernatant
T7 sequence (looked up): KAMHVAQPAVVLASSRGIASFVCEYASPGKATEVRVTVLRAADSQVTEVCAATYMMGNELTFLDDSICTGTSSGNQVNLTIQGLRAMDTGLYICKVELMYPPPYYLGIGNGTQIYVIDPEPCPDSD

T8: hCTLA4_ECD.His point mutant T147 to alanine (human, UniProt P16410 36-161)
T8 construct: extracellular domain; alanine-scan mutein, HEK293F supernatant
T8 sequence (looked up): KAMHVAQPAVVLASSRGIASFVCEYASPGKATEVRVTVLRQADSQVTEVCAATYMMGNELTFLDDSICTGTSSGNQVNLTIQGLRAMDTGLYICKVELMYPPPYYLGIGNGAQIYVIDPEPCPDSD

T9: hCTLA4_ECD.His point mutant T82 to alanine (human, UniProt P16410 36-161)
T9 construct: extracellular domain; alanine-scan mutein, HEK293F supernatant
T9 sequence (looked up): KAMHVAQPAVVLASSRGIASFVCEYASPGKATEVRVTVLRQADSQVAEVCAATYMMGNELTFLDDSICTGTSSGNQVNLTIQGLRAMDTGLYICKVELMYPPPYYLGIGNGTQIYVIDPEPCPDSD

T10: hCTLA4_ECD.His point mutant Y89 to alanine (human, UniProt P16410 36-161)
T10 construct: extracellular domain; alanine-scan mutein, HEK293F supernatant
T10 sequence (looked up): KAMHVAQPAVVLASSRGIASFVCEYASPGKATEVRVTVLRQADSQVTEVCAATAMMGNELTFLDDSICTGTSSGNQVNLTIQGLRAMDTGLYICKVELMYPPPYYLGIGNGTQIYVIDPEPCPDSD


Assays:
[1] = target: T1, hCTLA4_ECD.His point mutant K65 to …; test: capture ELISA, alanine scan, vs silent alanine substitutions
Summary of the method: (§1)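 Secreted His-tagged CTLA4 point muteins in quantified supernatant were captured and probed with HRP anti-His antibody and TMB. Absorbance normalised to the mean of control mutants; epitope residues were assigned with a binding fold-change cutoff of <0.55.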

[2] = target: T2, hCTLA4_ECD.His point mutant G142 to …; test: as above
Summary of the method: as §1

[3] = target: T3, hCTLA4_ECD.His point mutant L141 to …; test: as above
Summary of the method: as §1

[4] = target: T4, hCTLA4_ECD.His point mutant Y139 to …; test: as above
Summary of the method: as §1

[5] = target: T5, hCTLA4_ECD.His point mutant C103 to …; test: as above
Summary of the method: as §1

[6] = target: T6, hCTLA4_ECD.His point mutant V131 to …; test: as above
Summary of the method: as §1

[7] = target: T7, hCTLA4_ECD.His point mutant Q76 to …; test: as above
Summary of the method: as §1

[8] = target: T8, hCTLA4_ECD.His point mutant T147 to …; test: as above
Summary of the method: as §1

[9] = target: T9, hCTLA4_ECD.His point mutant T82 to …; test: as above
Summary of the method: as §1

[10] = target: T10, hCTLA4_ECD.His point mutant Y89 to …; test: as above
Summary of the method: as §1

Murine CTLA-4.ECD-6×His = target: T11, Murine CTLA-4.ECD-6×His (mouse, UniProt P09793 36-161); test: SPR, antibody captured on anti-human Fc, CTLA-4.ECD-6×His as analyte, 1:1 fit
T11 construct: extracellular domain; Bought; also called mouse CTLA-4.ECD-6×His; mouse CTLA-4 ECD
Experimental: Biacore T200, Series S Sensor Chip CMS, Amine Coupling Kit, and 10×HBS-EP were purchased from GE Healthcare. […] In immobilization step, the activation buffer was prepared by mixing 400 mM EDC and 100 mM NHS immediately prior to injection. The CM5 sensor chip was activated for 420 s with the activation buffer. 30 μg/mL of goat anti-human IgG Fcγ antibody in 10 mM NaAc (pH 4.5) was then injected to Fc1-Fc4 channels for 200 s at a flow rate of 5 μL/min. The chip was deactivated by 1 M ethanolamine-HCl (GE). Then the antibodies were captured on the chip. Briefly, 4 μg/mL antibodies in running buffer (HBS-EP+) was injected individually to Fc3 channel for 30 s at a flow rate of 10 μL/min. […] Regeneration buffer (10 mM Glycine pH 1.5) was injected at 10 μL/min for 30 s following every dissociation phase.
The binding kinetics of these antibodies were measured using SPR. The antibodies were captured on immobilized anti-human Fc and CTLA-4-ECD at different concentration was injected orderly. The sensorgrams for reference channel and buffer channel were subtracted from the test sensorgrams. The data was used for 1:1 binding analysis on human, monkey and mouse CTLA-4.ECD-6×His.

Fold change [1] [fold]	Fold change [2] [fold]	Fold change [3] [fold]	Fold change [4] [fold]	Fold change [5] [fold]	Fold change [6] [fold]	Fold change [7] [fold]	Fold change [8] [fold]	Fold change [9] [fold]	Fold change [10] [fold]	Kd (Murine CTLA-4.ECD-6×His) [nM]	koff (Murine CTLA-4.ECD-6×His) [s⁻¹]	kon (Murine CTLA-4.ECD-6×His) [M⁻¹ s⁻¹]	Binder
0.351													W3162_1.154.8-z35-uAb.IgG1K (antibody, V domains shown, Humanized; label says IgG1K) VH: QVQLVQSGAEVKKPGSSVKVSCKASGYTFTNYFMNWVRQAPGQGLEWMGRVDPEQGRADYAEKFKKRVTITADKSTSTAYMELSSLRSEDTAVYYCARRAMDNYGFAYWGQGTLVTVSS VL: EIVLTQSPDFQSVTPKEKVTITCSANSALSYMYWYQQKPDQSPKLWVHGTSNLASGVPSRFSGSGSGTDFTLTINSLEAEDAATYYCHHWSNTQWTFGGGTKVEIK
	0.543	0.486	0.431	0.544	0.504	0.2	0.486	0.436	0.512	1.39	0.000239	172000	W3162-1.146.19-z12-uAb.IgG1K (antibody, V domains shown, Humanized; label says IgG1K) VH: QVQLQESGPGLVKPSETLSLTCSVTYHTITSGYDWTWIRKPPGKGMEWIGYISYSGNTNYNPSLKSRVTISRDTSKNQFFLKLSSVTAADTAVYYCASMMVPHYYVMDAWGQGTLVTVSS VL: DIVMTQTPLSLSVTPGQPASISCRSSQSLLNSDGNTYLYWYLQKPGQSPQLLIYLVSKLGSGVPNRFSGSGSGTDFTLKISRVEAEDVGVYYCVQGTHDPWTFGGGTKVEIK
